According to PMC11816700, “Multiple Chaperone DnaK–FliC Flagellin Interactions are Required for Pseudomonas aeruginosa Flagellum Assembly and Indicate a New Function for DnaK” (Microbial Biotechnology, 2025):

Assays:
DnaK peptide H14 = target: T1, DnaK peptide H14 (P. aeruginosa); assay: peptide or protein array; SPOT membrane of 209 synthetic 15-mer peptides (shift of 3) spanning DnaK on cellulose; probed with purified recombinant FliC (GST cleaved); bound FliC detected with anti-FliC antibody and alkaline phosphatase secondary antibody; intensity by ImageJ, background subtracted; details: both partners purified
T1 construct: 15-residue stretch of P. aeruginosa DnaK, spot H14 of the DnaK SPOT membrane, domain SBD; source: synthetic peptide, SPOT membrane (cellulose)
T1 peptide: QGDALVHATRKMITE

DnaK peptide H13 = target: T2, DnaK peptide H13 (P. aeruginosa); assay: as above; details: both partners purified
T2 construct: 15-residue stretch of P. aeruginosa DnaK, spot H13 of the DnaK SPOT membrane, domain SBD; source: synthetic peptide, SPOT membrane (cellulose)
T2 peptide: ARNQGDALVHATRKM

DnaK peptide E20 = target: T3, DnaK peptide E20 (P. aeruginosa); assay: as above; details: both partners purified
T3 construct: 15-residue stretch of P. aeruginosa DnaK, spot E20 of the DnaK SPOT membrane, domain NBD (ATPase); also called E20 (DnaK membrane); source: synthetic peptide, SPOT membrane (cellulose)
T3 peptide: VGGQTRMPLVQKTVA

DnaK peptide E18 = target: T4, DnaK peptide E18 (P. aeruginosa); assay: as above; details: both partners purified
T4 construct: 15-residue stretch of P. aeruginosa DnaK, spot E18 of the DnaK SPOT membrane, domain NBD (ATPase); source: synthetic peptide, SPOT membrane (cellulose)
T4 peptide: IHEVILVGGQTRMPL

FliC peptide C20 = target: T5, FliC peptide C20 (P. aeruginosa); assay: peptide or protein array; SPOT membrane of 159 synthetic 15-mer peptides (shift of 3) spanning FliC on cellulose; probed with purified recombinant DnaK (GST cleaved); bound DnaK detected with anti-DnaK antibody and alkaline phosphatase secondary antibody; intensity by ImageJ, background subtracted; details: both partners purified
T5 construct: 15-residue stretch of P. aeruginosa FliC, spot C20 of the FliC SPOT membrane, domain D3; source: synthetic peptide, SPOT membrane (cellulose)
T5 peptide: VGGGQVKNIAIAAGD

FliC peptide F19 = target: T6, FliC peptide F19 (P. aeruginosa); assay: as above; details: both partners purified
T6 construct: 15-residue stretch of P. aeruginosa FliC, spot F19 of the FliC SPOT membrane, domain D1; source: synthetic peptide, SPOT membrane (cellulose)
T6 peptide: QRADLGAVQNRFKNT

FliC peptide A16 = target: T7, FliC peptide A16 (P. aeruginosa); assay: as above; details: both partners purified
T7 construct: 15-residue stretch of P. aeruginosa FliC, spot A16 of the FliC SPOT membrane, domain D1; source: synthetic peptide, SPOT membrane (cellulose)
T7 peptide: AGLQISNRLSNQISG

FliC peptide D20 = target: T8, FliC peptide D20 (P. aeruginosa); assay: as above; details: both partners purified
T8 construct: 15-residue stretch of P. aeruginosa FliC, spot D20 of the FliC SPOT membrane, domain D2; source: synthetic peptide, SPOT membrane (cellulose)
T8 peptide: LADQLNSNSSKLGIT

FliC peptide A9 = target: T9, FliC peptide A9 (P. aeruginosa); assay: as above; details: both partners purified
T9 construct: 15-residue stretch of P. aeruginosa FliC, spot A9 of the FliC SPOT membrane, domain D0; source: synthetic peptide, SPOT membrane (cellulose)
T9 peptide: LNTSLQRLTTGYRIN

FliC peptide A10 = target: T10, FliC peptide A10 (P. aeruginosa); assay: as above; details: both partners purified
T10 construct: 15-residue stretch of P. aeruginosa FliC, spot A10 of the FliC SPOT membrane, domain D0; source: synthetic peptide, SPOT membrane (cellulose)
T10 peptide: SLQRLTTGYRINSAK

FliC peptide F22 = target: T11, FliC peptide F22 (P. aeruginosa); assay: as above; details: both partners purified
T11 construct: 15-residue stretch of P. aeruginosa FliC, spot F22 of the FliC SPOT membrane, domain D1; source: synthetic peptide, SPOT membrane (cellulose)
T11 peptide: NRFKNTIDNLTNISE

FliC peptide E21 = target: T12, FliC peptide E21 (P. aeruginosa); assay: as above; details: both partners purified
T12 construct: 15-residue stretch of P. aeruginosa FliC, spot E21 of the FliC SPOT membrane, domain D2; source: synthetic peptide, SPOT membrane (cellulose)
T12 peptide: TVVTGYVQLNSPTAY

FliC peptide B18 = target: T13, FliC peptide B18 (P. aeruginosa); assay: as above; details: both partners purified
T13 construct: 15-residue stretch of P. aeruginosa FliC, spot B18 of the FliC SPOT membrane, domain D1; source: synthetic peptide, SPOT membrane (cellulose)
T13 peptide: TRISDTTTFGGRKLL

FliC peptide E22 = target: T14, FliC peptide E22 (P. aeruginosa); assay: as above; details: both partners purified
T14 construct: 15-residue stretch of P. aeruginosa FliC, spot E22 of the FliC SPOT membrane, domain D2; source: synthetic peptide, SPOT membrane (cellulose)
T14 peptide: TGYVQLNSPTAYSVS

FliC peptide D5 = target: T15, FliC peptide D5 (P. aeruginosa); assay: as above; details: both partners purified
T15 construct: 15-residue stretch of P. aeruginosa FliC, spot D5 of the FliC SPOT membrane, domain D3; source: synthetic peptide, SPOT membrane (cellulose)
T15 peptide: IPNLSARARTVFTAD

FliC peptide E20 = target: T16, FliC peptide E20 (P. aeruginosa); assay: as above; details: both partners purified
T16 construct: 15-residue stretch of P. aeruginosa FliC, spot E20 of the FliC SPOT membrane, domain D2; also called E20 (FliC membrane); source: synthetic peptide, SPOT membrane (cellulose)
T16 peptide: ATTTVVTGYVQLNSP

[1] = target: SOD1bar mutant G41D (SOD1bar-G41D), FRET folding sensor; assay: cell-based or functional assay

B1: purified recombinant P. aeruginosa FliC (natural protein, UniProt A0A0H2Z7X1 1-488, looked up)
chain: MALTVNTNIASLNTQRNLNASSNDLNTSLQRLTTGYRINSAKDDAAGLQISNRLSNQISGLNVATRNANDGISLAQTAEGALQQSTNILQRIRDLALQSANGSNSDADRAALQKEVAAQQAELTRISDTTTFGGRKLLDGSFGTTSFQVGSNAYETIDISLQNASASAIGSYQVGSNGAGTVASVAGTATASGIASGTVNLVGGGQVKNIAIAAGDSAKAIAEKMDGAIPNLSARARTVFTADVSGVTGGSLNFDVTVGSNTVSLAGVTSTQDLADQLNSNSSKLGITASINDKGVLTITSATGENVKFGAQTGTATAGQVAVKVQGSDGKFEAAAKNVVAAGTAATTTVVTGYVQLNSPTAYSVSGTGTQASQVFGNASAAQKSSVASVDISTADGAQNAIAVVDNALAAIDAQRADLGAVQNRFKNTIDNLTNISENATNARSRIKDTDFAAETAALSKNQVLQQAGTAILAQANQLPQAVLSLLR
notes: FliC (flagellin type B) of P. aeruginosa UCBPP-PA14, gene amplified with primers fliCFw/Rv and cloned BamHI/XhoI into pGEX-6P-1; also called FliC-GST (before cleavage); source: E. coli BL21(λDE3), pGEX-6P-1-fliC, purified (Glutathione Sepharose 4B, eluted by prescission protease)
Intensity (DnaK peptide H14): 3.34 relative intensity
Intensity (DnaK peptide H13): 2.23 relative intensity
Intensity (DnaK peptide E20): 2.22 relative intensity
Intensity (DnaK peptide E18): 2.23 relative intensity

B2: purified recombinant P. aeruginosa DnaK (natural protein)
chain: not shown
notes: DnaK of P. aeruginosa UCBPP-PA14, gene amplified with primers dnaKFw/Rv and cloned BamHI/XhoI into pGEX-6P-1; also called DnaK-GST (before cleavage); source: E. coli BL21(λDE3), pGEX-6P-1-dnaK, purified (Glutathione Sepharose 4B, eluted by prescission protease)
Intensity (FliC peptide C20): 3.05 relative intensity
Intensity (FliC peptide F19): 2.34 relative intensity
Intensity (FliC peptide A16): 4.17 relative intensity
Intensity (FliC peptide D20): 2.85 relative intensity
Intensity (FliC peptide A9): 2.51 relative intensity
Intensity (FliC peptide A10): 2.4 relative intensity
Intensity (FliC peptide F22): 2.3 relative intensity
Intensity (FliC peptide E21): 2.87 relative intensity
Intensity (FliC peptide B18): 5.07 relative intensity
Intensity (FliC peptide E22): 3.55 relative intensity
Intensity (FliC peptide D5): 2.22 relative intensity
Intensity (FliC peptide E20): 2.36 relative intensity
decrease of the melting temperature (Tm) of SOD1bar-G41D with DnaK (20 μM), pH 7, fast relaxation imaging (FReI); not affected by ATP or AMP-PNP [1]: ~10 K
fold decrease of the maximal ΔD/A Initial of DnaK+SOD1bar-G41D at pH 6 when 2 mM ATP or AMP-PNP was added [1]: ~1.7 fold
fold increase of kobs of the ΔD/A Initial curve of DnaK+SOD1bar-G41D at pH 6 when 2 mM AMP-PNP was added [1]: 2 fold
fold increase of kobs of the ΔD/A Initial curve of DnaK+SOD1bar-G41D at pH 6 when 2 mM ATP was added [1]: 4 fold
melting temperature (Tm) of SOD1bar-G41D when supplemented with DnaK, FReI [1]: 308 K
reduction of the folding rate (kf) of SOD1bar-G41D at 310 K with DnaK (20 μM), pH 7, FReI [1]: ~3 fold
